This experiment concerns the target T1, RGA4 1-171:CFP (rice, UniProt F7J0M4 1-171).
T1 construct: not shown: C-terminal CFP tag
T1 sequence (looked up): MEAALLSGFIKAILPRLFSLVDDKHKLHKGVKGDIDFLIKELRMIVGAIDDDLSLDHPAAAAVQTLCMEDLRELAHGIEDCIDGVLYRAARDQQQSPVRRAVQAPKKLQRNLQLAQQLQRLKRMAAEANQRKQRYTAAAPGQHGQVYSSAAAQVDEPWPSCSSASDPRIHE
Description: co-immunoprecipitation with anti-GFP antibodies from N. benthamiana leaf cells, anti-HA immunoblot.

B1: Sr50 1-163:HA (other)
chain: MNIVTGAMGSLIPKLGELLMDEYKLHKRIKKDVEFLKKELESMHAALIKVGEVPRDQLDRQVKLWADEVRELSYNMEDVVDKFLVRVDGDGIQQPHDNSGRFKELKNKMIGLFKKGRNHHRIADAIKEIKEQLQEVAARRDRNKVAVPNPMEPITIDPCLRAL
notes: Transiently expressed in N. benthamiana leaf cells under the 35S promoter; also called full CC domain of Sr50 fused to a C-terminal HA tag; not shown: C-terminal HA tag (vector pBIN19-35S::GTW:3HA)
B1: the binding result is “no binding”.

B2: Sr33 1-160:HA (other)
chain: MDIVTGAIAKLIPKLGELLVGEYKLHKGVKKNIEDLLKELKTMNAALIKIGEVPPDQLDSQDKLWADEVRELSYVIEDAVDKFLVRVHGVEPDDNTNGFKGLMKRTTKLLKKVVDKHGIAHAIKDIKKELQEVAARRDRNKFDGIASIPTEAIDPRLRAL
notes: also called full CC domain of Sr33 fused to a C-terminal HA tag; not shown: C-terminal HA tag (vector pBIN19-35S::GTW:3HA)
As for B2, the binding result is on record as “no binding”.

The values above are taken from patent US20200270627A1 (COMMONWEALTH SCIENTIFIC AND INDUSTRIAL RESEARCH ORGANISATION, published 2020).
